# Source: patent publication US20240101645A1 (HENRY M JACKSON FOUNDATION FOR THE ADVANCEMENT OF MILITARY …, published 2024)
# Numbering of substitutions follows the chain as printed.
# B1: COV_2172 (SEQ ID NO:442/447) (antibody, V domains shown)
# VH: EVQLVESGGGVVQPGRSLRLSCAPSGFTFSTYAMHWVRQAPGKGLEWVAVISYDGSIKYYADSVKGRFTISRDNTMNTVFLQMNSLRAEDTAVYFCAKGGERWELFTSFDYWGQGTQVTVSS
# VL: QSALTQPRSVSGSPGQSVTISCTGTSSDVGGYNYVSWYQQHPGKAPKLMIYDVSKRPSGVPDRFSGSKSGNTASLTISGLQAEDEADYYCCSYAGSYTFVFGGGTKLTVL
# B2: COV_2066 (antibody, V domains shown)
# VH: QVQLQESGPGLVKPSETLSLTCSVSGFAITNGFDWGWIRQPPRLGLEWIGTVFHTGVTYSNPSLKSRLSTSVDTSKNQFSMTLNSVTAADTGIYYCVRVQSGLEARAMSFFDYWGQGMLVSVSS
# VL: DIVMTQSPDSLAVSLGERATINCKSSQNVLYSSNNKNSLAWYQQKPGQPPKVLIYWASTRVSGVPDRFIGSGSGTDFTLTISSLQAEDVAVYYCQQYSSSITFGPGTKVEVKR
# B3: COV_3019 (antibody, V domains shown)
# VH: EVQLVESGGGLVQPGQSLRLSCTTSGFNFGDNSMSWVRQAPGKGLEWVGFISPKSHGETTEYAASVKGRFSISRDDSTSIAYLQMSSLKTEDTAIYYCIRDSYGHFPEYGFDIWGQGTMVTVSS
# VL: DVVLTQTPLFLSVTPGQPASISCKSSRSLIHSDGKTYFYWFLQKAGQPPQLLIYEASNRFSGVPDRFSGSGSGTDFTLHISRVEAEDVGIYYCMHSIQLPRTFGQGTKVELT
# B4: COV_3031 (antibody, V domains shown)
# VH: B3 VH with Q16R, P53N, S55A, H56Y, E58G, S71T, S86N, E108D
# VL: B3 VL with A45P, H79K, I90V, L111I
# B5: COV_3028 (antibody, V domains shown)
# VH: B3 VH with E58G, I80N, S86T
# VL: B3 VL with R27G, S32T
# B6: COV_3033 (antibody, V domains shown)
# VH: EVQMVESGGGFVQPGQSPRLSCLVSGLNFADYAFCWVRQAPGKGPEWIGFISSKLHGGTTHYAASVEGRFIISRDDSKNVVYLQMDNLKAEDSAVYYCTRDSYGYFPEYGFGVWGQGTLVTVSS
# VL: EVVLTQTPLSLSVTPGQPASISCRSSQSLVHSDGRTYLYWFLQKPGQPPQPLIYDISSRFSGVPYRFTGSGSGTYFTLRISRVEADDVGVYYCMHSIQLPRAFGQGTKVEIK
# B7: COV_1046 (antibody, V domains shown)
# VH: QVQLVQSGAEVQKPGASVKVSCKASGDTFSYSYVHWVRQAPGHGLEWMGIINPSNGDTNYTQNFQGRVTMTSDTSTSTVLLELSSLTSDDTAVYYCARAPDQYFDYWGQGSPVTVSA
# VL: DIVMTQTPLSSPVTLGQPASISCRSSESLVHSDGNTYLSWLQQRPGQPPRLLIYRVSNRFSGVPDRFSGSGAGTDFTLKISRVEAEDVGVYYCMQAKDFPRTFGQGTKVEIK
# B8: COV_1071 (antibody, V domains shown)
# VH: QVHLVQSGAEVQKPGASVKISCKASGDTFSESYVHWVRQAPGSGLEWMGIINTRDGDTNYTHQFQDRVMMTTDTSTSTVFLELYSLTSEDTAVYYCARAPDQYFDYWGQGSPVTVSA
# VL: DIVMTQTPLSSPVTLGQPASISCRSSESLVHSNGNTYLSWLQQRPGQPPKLLIYRVSNRFSGVPDRFSGSGAGTEFTLKISRVEAEDVGVYYCMQARHFPRTFGQGTKVEIKR
# B9: COV_1086 (antibody, V domains shown)
# VH: GAQLLESGGALVQPGGSLRLSCAASGFTFNNYGMGWVRQTPGKGLEWVSTINDNGGNTHYADSVKGRFTISRDNSKHTLYLQMNSLRVEDTALYYCAKDVGGPALFEYWGHGTLVTVSS
# VL: B8 VL with P12S, E27Q, N33D, S39T, R55K, V56I, F60L, E75D, R97T, V109L
# B10: COV_1045 (antibody, V domains shown)
# VH: B8 VH with F29L, E31D, Y84F
# VL: B7 VL with D33N, D75E, K97R, D98H
# B11: COV_1087 (antibody, V domains shown)
# VH: B7 VH with S32H, H43Y, N52D, S54R, G56A, N63K, S72T, S77N, L80F
# VL: B8 VL with R24K, V30L, N33D, K50R, E75D, K79R, R97T, H98Q
# B12: COV_1076 (antibody, V domains shown)
# VH: QVQLVESGGGLVKPGGSLRLSCAASGFTFSEYSMSWIRQAPGKGLEWVSFIGGSGDYTNYADSVKGRFTISRDNAKNLLYLQMNTLRVEDTAVYYCARRGSANCGDDWWGQGTLVTVSS
# VL: DIVMTQSPDSLAVSLGERATINCKSSHGVLYRSNNKDHLAWYQQKPGHPPKLLIYWASIRESGVPDRFSGSGSGTDFTLTISGLQAEDVAVYYCQQYYGNPTFGGGTKVEIKR
# B13: COV_1082 (antibody, V domains shown)
# VH: EVQLVESGGGLVQPGGSLRLSCAASGFIFNIHGMNWFRQAPGKGLEWISHIGTSGESRDIHYADSVRGRFTISRDNGKHSLYLQMNSLTAEDTAVYFCARGLTNSDLWGQGTLVTVSS
# VL: EIVMTQTPLSSPVTLGQPASISCRSSESLVHSNGDTYLSWLHQRPGQPPRLLLYKISNRFSGVPDRFSGSGAGTDFTLTISRVEAEDVGLYYCMQATSFPRTFGQGTKVEIKR
# B14: COV_1037 (antibody, V domains shown)
# VH: QVQLVESGGGVVQPGRSLRLSCAASGFTFSSYGMHWVRQAPGKGLEWVAVIWYDGSNKYYADSVKGRFTISRDNSKNTLYLQMNSLRAEDTAVYYCARGGYQLLWHYYYYYGMDVWGQGTTVTVSS
# VL: not shown
# B15: COV_2018 (antibody, V domains shown)
# VH: QVQLVQSGAEVKKPGSSVKVSCKASGGTSSSYAISWVRQAPGQGLEWIGGIIPIFDTTKYAQKFQGRVTITADESTNTAYMEVSSLRSEDTAVYYCAKVADRVGASTGELDYWGQGTLVTVSS
# VL: EVVLTQSPATLSLSPGERGTLSCRASQSISNYLAWYQQKPGQAPRLLIYNASNRATGVPARFSGSGSGTDFTLTISSLEPEDFAVYYCQQRSNWPPWTFGQGTKVEIK
# B16: COV_2108 (antibody, V domains shown)
# VH: EVQLVESGGGVVQPGRSLRLSCAASGFTFSNYAFHWVRQAPGKGLEWVAVISYDGSIKYSADSVKGRFTISRDNSKNTLYLQMNSLRAEDTAVYYCARDSGDYVDYFDYWGQGTLVTVSS
# VL: DIQMTQSPSSLSASVGDRVTITCRASQSISSYLNWYQQKPGKAPKLLIHTTSSLQSGVPSRFSGSGSGTGFTLTISSLQPEDFATYYCQQSYSSPPLTFGGGTKVEIK
# B17: COV_1198 (antibody, V domains shown)
# VH: EVQLVEAGGDLVQPGGSLRLSCSASGFTFTSYSIHWVRQAPGKGLEYVSTISHGGDITDFADSVKGRFTISRDNSENTVYLQMSSLRPEDTAVYYCARSNFWLDYWGQGTLVTVSS
# VL: KIVMTQSPATLSVSPGDSATLSCRASQSVSSNLAWYQQKPGQAPRLLISGAFTRATGIPARFSGSGSGTEFTLTISSLQSEDFAVYYCLQYNNWPLYTFGQGTKLEIKR
# B18: COV_3000 (antibody, V domains shown)
# VH: EVQLVESGGGLVQPGRSLRLSCTASGFNFGDNSMSWVRQAPGKGLEWVGFISNRASGGTTEYAASVKGRFTISRDDSKSIAYLQMNSLKTEDTAMYFCTKDSYGHFPNYGFDIWGQGTMVTVSS
# VL: AVVMTQTPLSLSVTPGQPASISCKSSQSLIHTDGKTYHYWFLQRPGQPPQLLIYDVSNRVSGVPDRFSGSGSGTDFTLKISRVEADDVGVYYCMHSIQLPRAFGQGTKVEIT
# B19: COV_3013 (antibody, V domains shown)
# VH: EVQLVESGGGLVQPGRSLRLSCTTSGFNFGDNSMSWVRQAPGKGLEWVGFISNKAHGATTEYAASVRGRFTISRDDSKSIVYLQMNSLTTEDTAMYYCIRDSYGHFPSYGFDIWGQGTMVTVSS
# VL: B18 VL with A1D, T32S, G34A, H38F, R44K, V60F, D86E, A102T
# B20: COV_3040 (antibody, V domains shown)
# VH: B18 VH with E1Q, A24T, V48I, R54K, S56H, E61D, T90A, M95I, F97Y, N108S
# VL: DVVMTQTPLSLSVTPGQPASISCKSTQSLVHTDGKTYFYWFLQKPGQPPQLLIYDVSSRFSGVPDRFSGSGSATDFTLRISRVEAEDVGVYYCMHSINFPRTFGQGTKVEIT
# B21: COV_3037 (antibody, V domains shown)
# VH: B18 VH with S56Y, T71S, K89R, T121I
# VL: B18 VL with A1V
# B22: COV_3005 (antibody, V domains shown)
# VH: EVQLLGFGGGFIRPGGSLRLSCAASGFSFSSYSMSWVRQGPGNGLEWVAGISDRGNSKTYADSVKGRFTVSRDNSKDMLYLELTNLRVEDSATYFCARDWSQSSSSSSPDYWGPGILVTVSS
# VL: DIQMTQSPSAMSAFVGDRVTITCRASLGVNNYLAWYQQRPGKVPRRLIYAASSLQSGVPSRFRGSGSGTQFTLTITGLQPEDSGTYYCLQHGRYPPVFGPGTRVELI
# Target: SARS-CoV-2 S on pseudovirions (Wuhan Hu-1 / IL1/2020, last 18 amino acids removed) (SARS-CoV-2, UniProt P0DTC2 14-1273)
# Assay: cell-based or functional assay
Binder,"Mean IC50, pSV neutralization","Mean IC80, pSV neutralization"
B1,3.73 µg/ml,≥ 25 µg/ml
B2,≥ 25 µg/ml,≥ 25 µg/ml
B3,≥ 25 µg/ml,≥ 25 µg/ml
B4,≥ 25 µg/ml,≥ 25 µg/ml
B5,≥ 25 µg/ml,≥ 25 µg/ml
B6,≥ 25 µg/ml,≥ 25 µg/ml
B7,≥ 25 µg/ml,≥ 25 µg/ml
B8,≥ 25 µg/ml,≥ 25 µg/ml
B9,≥ 25 µg/ml,≥ 25 µg/ml
B10,≥ 25 µg/ml,≥ 25 µg/ml
B11,≥ 25 µg/ml,≥ 25 µg/ml
B12,≥ 25 µg/ml,≥ 25 µg/ml
B13,≥ 25 µg/ml,≥ 25 µg/ml
B14,≥ 25 µg/ml,≥ 25 µg/ml
B15,0.31 µg/ml,1.27 µg/ml
B16,13.5 µg/ml,15.8 µg/ml
B17,≥ 25 µg/ml,≥ 25 µg/ml
B18,≥ 25 µg/ml,≥ 25 µg/ml
B19,≥ 25 µg/ml,≥ 25 µg/ml
B20,≥ 25 µg/ml,≥ 25 µg/ml
B21,≥ 25 µg/ml,≥ 25 µg/ml
B22,≥ 25 µg/ml,≥ 25 µg/ml
